Data published in publication PMC9352680, “A comprehensive thermodynamic model for RNA binding by the Saccharomyces cerevisiae Pumilio protein PUF4”.

T1: PUF4 RNA-binding domain (Saccharomyces cerevisiae, UniProt P25339 537-888)
T1 sequence: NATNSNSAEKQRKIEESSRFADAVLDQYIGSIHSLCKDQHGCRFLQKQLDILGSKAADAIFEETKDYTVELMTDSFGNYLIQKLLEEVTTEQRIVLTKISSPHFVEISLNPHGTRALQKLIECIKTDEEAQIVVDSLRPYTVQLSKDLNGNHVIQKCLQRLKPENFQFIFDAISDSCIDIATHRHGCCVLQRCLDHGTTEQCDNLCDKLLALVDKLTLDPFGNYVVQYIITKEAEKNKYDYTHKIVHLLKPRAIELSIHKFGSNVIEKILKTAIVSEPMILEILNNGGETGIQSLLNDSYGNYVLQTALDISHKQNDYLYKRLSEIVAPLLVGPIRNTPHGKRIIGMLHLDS

B1: Ic_S4_P4E.1_K4.1_C4.1_H4.1_A4.1_[T5C]_[T7C]_F4.1_[A9T]_T4.1 (ssRNA)
RNA: UUUGACAACUGAUCGUUCUUUCUUGUACACUUUUCUUUCUCGAUCAGUUGUCUUU
B2: Ic_S4_P4E.1_K4.1_C4.1_H4.1_A4.1_[T5C]_F4.1_[A9G]_T4.1 (ssRNA)
RNA: UUUGACAACUGAUCGUUCUUUCUUGUACAUUGUUCUUUCUCGAUCAGUUGUCUUU
B3: Ic_S4_P4E.1_K4.1_C4.1_H4.1_A4.1_[T5A]_[A6C]_[T7A]_F4.1_[T8G]_[A9T]_T4.1 (ssRNA)
RNA: UUUGACAACUGAUCGUUCUUUCUUGUAACAGUUUCUUUCUCGAUCAGUUGUCUUU
B4: Ic_S4_P4E.1_K4.1_C4.1_H4.1_A4.1_[T5A]_[A6C]_F4.1_[T8G]_[A9T]_T4.1 (ssRNA)
RNA: UUUGACAACUGAUCGUUCUUUCUUGUAACUGUUUCUUUCUCGAUCAGUUGUCUUU
B5: Ic_S4_P4E.1_K4.1_C4.1_H4.1_A4.1_[T5A]_[A6C]_F4.1_[T8A]_[A9T]_T4.1 (ssRNA)
RNA: UUUGACAACUGAUCGUUCUUUCUUGUAACUAUUUCUUUCUCGAUCAGUUGUCUUU
B6: Ic_S4_P4E.1_K4.1_C4.1_H4.1_A4.1_[T5C]_[T7A]_F4.1_[T8C]_[A9C]_T4.1 (ssRNA)
RNA: UUUGACAACUGAUCGUUCUUUCUUGUACAACCUUCUUUCUCGAUCAGUUGUCUUU
B7: Ic_S4_P4E.1_K4.1_C4.1_H4.1_A4.1_[T5C]_[T7A]_F4.1_[T8C]_[A9T]_T4.1 (ssRNA)
RNA: UUUGACAACUGAUCGUUCUUUCUUGUACAACUUUCUUUCUCGAUCAGUUGUCUUU
B8: Ic_S4_P4E.1_K4.1_C4.1_H4.1_A4.1_[T5A]_[A6C]_[T7G]_F4.1_[T8G]_[A9T]_T4.1 (ssRNA)
RNA: UUUGACAACUGAUCGUUCUUUCUUGUAACGGUUUCUUUCUCGAUCAGUUGUCUUU
B9: Ic_S4_P4E.1_K4.1_C4.1_H4.1_A4.1_[T5A]_[A6C]_[T7A]_F4.1_[T8G]_[A9C]_T4.1 (ssRNA)
RNA: UUUGACAACUGAUCGUUCUUUCUUGUAACAGCUUCUUUCUCGAUCAGUUGUCUUU
B10: Ic_S4_P4E.1_K4.1_C4.1_H4.1_A4.1_[T5A]_[A6C]_F4.1_[T8A]_[A9C]_T4.1 (ssRNA)
RNA: UUUGACAACUGAUCGUUCUUUCUUGUAACUACUUCUUUCUCGAUCAGUUGUCUUU
B11: Ic_S4_P4E.1_K4.1_C4.1_H4.1_A4.1_[T5A]_[A6C]_[T7C]_F4.1_T4.1 (ssRNA)
RNA: UUUGACAACUGAUCGUUCUUUCUUGUAACCUAUUCUUUCUCGAUCAGUUGUCUUU
B12: Ic_S4_P4E.1_K4.1_C4.1_H4.1_A4.1_[T5C]_[T7A]_F4.1_[T8A]_T4.1 (ssRNA)
RNA: UUUGACAACUGAUCGUUCUUUCUUGUACAAAAUUCUUUCUCGAUCAGUUGUCUUU
B13: Ic_S4_P4E.1_K4.1_C4.1_H4.1_A4.1_[T5C]_F4.1_[A9C]_T4.1 (ssRNA)
RNA: UUUGACAACUGAUCGUUCUUUCUUGUACAUUCUUCUUUCUCGAUCAGUUGUCUUU
B14: Ic_S4_P4E.1_K4.1_C4.1_H4.1_A4.1_[T5A]_[A6T]_[T7C]_F4.1_[T8C]_T4.1 (ssRNA)
RNA: UUUGACAACUGAUCGUUCUUUCUUGUAAUCCAUUCUUUCUCGAUCAGUUGUCUUU
B15: Ic_S4_P4E.1_K4.1_C4.1_H4.1_A4.1_[T5A]_[A6C]_[T7A]_F4.1_[T8A]_[A9C]_T4.1 (ssRNA)
RNA: UUUGACAACUGAUCGUUCUUUCUUGUAACAACUUCUUUCUCGAUCAGUUGUCUUU
B16: Ic_S4_P4E.1_K4.1_C4.1_H4.1_A4.1_[T5A]_[A6C]_[T7G]_F4.1_[T8C]_[A9T]_T4.1 (ssRNA)
RNA: UUUGACAACUGAUCGUUCUUUCUUGUAACGCUUUCUUUCUCGAUCAGUUGUCUUU
B17: Ic_S4_P4E.1_K4.1_C4.1_H4.1_A4.1_[T5A]_[A6T]_[T7G]_F4.1_[T8C]_[A9T]_T4.1 (ssRNA)
RNA: UUUGACAACUGAUCGUUCUUUCUUGUAAUGCUUUCUUUCUCGAUCAGUUGUCUUU
B18: Ic_S4_P4E.1_K4.1_C4.1_H4.1_A4.1_[T5A]_[A6C]_[T7G]_F4.1_[T8G]_[A9C]_T4.1 (ssRNA)
RNA: UUUGACAACUGAUCGUUCUUUCUUGUAACGGCUUCUUUCUCGAUCAGUUGUCUUU
B19: Ic_S4_P4E.1_K4.1_C4.1_H4.1_A4.1_[T5C]_[T7A]_F4.1_[A9C]_T4.1 (ssRNA)
RNA: UUUGACAACUGAUCGUUCUUUCUUGUACAAUCUUCUUUCUCGAUCAGUUGUCUUU
B20: Ic_S4_P4E.1_K4.1_C4.1_H4.1_A4.1_[T5A]_[A6C]_[T7A]_F4.1_T4.1 (ssRNA)
RNA: UUUGACAACUGAUCGUUCUUUCUUGUAACAUAUUCUUUCUCGAUCAGUUGUCUUU
B21: Ic_S4_P4E.1_K4.1_C4.1_H4.1_A4.1_[T5C]_[T7A]_F4.1_[T8G]_[A9C]_T4.1 (ssRNA)
RNA: UUUGACAACUGAUCGUUCUUUCUUGUACAAGCUUCUUUCUCGAUCAGUUGUCUUU
B22: Ic_S4_P4E.1_K4.1_C4.1_H4.1_A4.1_[T5A]_[A6C]_F4.1_T4.1 (ssRNA)
RNA: UUUGACAACUGAUCGUUCUUUCUUGUAACUUAUUCUUUCUCGAUCAGUUGUCUUU

Target: T1, PUF4 RNA-binding domain
Assay: Mg; RNA-MaP; 20 mM Na-HEPES pH 7.4, 30 mM KOAc, 0.75 mM MgCl2, 0.1% Tween-20, 5% glycerol, 0.1 mg/mL BSA, 2 mM DTT; 25 C; 0.0125-409.6 nM protein
Conditions: tags: N-His6-TEV cleaved; C-SNAP kept, Cy3B-labelled; label: tethered on chip by stalled RNA polymerase

Binder | Kd [nM]
UCUCUUUGUAUCUCAUCUCUU (ssRNA) [Ib_S1_P4E.1_K4.1_C4.1_H4.1_A4.1_[A6C]_F4.1_[T8C]_T4.1] | 34.6
UCUCUUUGUAUUUCAUCUCUU (ssRNA) [Ib_S1_P4E.1_K4.1_C4.1_H4.1_A4.1_[A6T]_F4.1_[T8C]_T4.1] | 69.6
UCUCUUUGUAUAUGUCUCUU (ssRNA) [Ia_S1_P3E.1_K3.1_C3.1_H3.1_A3.1_F3.1_[A8G]_T3.1] | 17
B1 | 4.37
B2 | 3.85
B3 | 604
B4 | 95.2
B5 | 49.4
B6 | 99.9
B7 | 39.4
B8 | 1290
B9 | 879
B10 | 287
B11 | 5.74
B12 | 13.8
B13 | 3.55
B14 | 464
B15 | 1050
B16 | 205
B17 | 518
B18 | > 2300
B19 | 22.1
B20 | 1.34
B21 | 700
B22 | 3.93
